# Data taken from article PMC2941195.
# B1: NotC (Aspergillus sp. MF297-2) (protein)
# chain: MAIEEKSTSAEPGPYDALSRFSSLTGEDDRKWWEHTGPVLEKVMRDSGYELQSQYIYLYFVQQHLIPYLGKFPTRGQDDHRWQSNLTPYKVPYELSWNVSHKVVRISWDPVCDASGTENDAFNKKAIHDCTRQLAELDSTVILDRYRLLHKDLVITDEEEQQLLRRDVLPKSGRGQHNLAVDFQEGGITLKVYFYPYMKFLATGTPIEELFFSAIEKLRIADIDEAVGMLKCFLSPKSDDGKPSVDEKVFPSLLACDLCDPSKSRIKYYVIDKWVKWERIANLWTIGGRRLEDPYCAKGLALLKELWDLLAIPEGDRGDIWPNLVLGQPPTHLMTTIANYTLSPASRFPEPQVYLTTFGLNDMAIIDALTAFYERVGFTDMAKSYKKNVQSYYPNLDLNQTNWVHEAVSFSYRNSKPYLSVYYSPF
# Substrate: C=CC(C)(C)c1[nH]c2cc(O)ccc2c1C[C@@H]1NC(=O)[C@@H]2CCCN2C1=O
# Assay: Michaelis-Menten kinetics, HPLC product detection
# Assay type: biochemical, Aspergillus sp. MF297-2
# Settings: normal prenylation at C-7 with DMAPP, 5 mM MgCl2, 50 mM Tris-Cl pH 7.5
protein,measurement,value
B1,Km,2.64 ± 0.33 µM
same,kcat,1.01 ± 0.0317 s⁻¹
